Test results as given in article PMC10294631.

Tested on: CsrA-His6
Assay: EMSA

With hmsE RNA 104 nt (GGA2 and GGA3) the Kd was 138 nM.
